Article PMC3899018, “Biochemical and Structural Studies of Conserved Maf Proteins Revealed Nucleotide Pyrophosphatases with a Preference for Modified Nucleotides” (Chemistry & Biology, 2013)

Legend:
Assay in all cases: pyrophosphatase-coupled Pi release assay
[1] = substrate: O=c1[nH]cc([C@@H]2O[C@H](COP(=O)(O)OP(=O)(O)OP(=O)(O)O)[C@@H](O)[C@H]2O)c(=O)[nH]1; type: biochemical, Saccharomyces cerevisiae; details: 2 mM Co2+, 30°C
Text: (§1) pyrophosphatase-coupled Pi release assay on YOR111W

[2] = substrate: Cc1cn([C@@H]2O[C@H](COP(=O)(O)OP(=O)(O)OP(=O)(O)O)[C@@H](O)[C@H]2O)c(=O)[nH]c1=O; type: biochemical, Saccharomyces cerevisiae; details: 2 mM Co2+, 30°C
Text: as §1

[3] = substrate: O=c1ccn([C@@H]2O[C@H](COP(=O)(O)OP(=O)(O)OP(=O)(O)O)[C@@H](O)[C@H]2O)c(=O)[nH]1; type: biochemical, Saccharomyces cerevisiae; details: 2 mM Co2+, 30°C
Text: as §1

[4] = substrate: C[n+]1cn([C@@H]2O[C@H](COP(=O)(O)OP(=O)(O)OP(=O)(O)O)[C@@H](O)[C@H]2O)c2nc(N)[nH]c(=O)c21; type: biochemical, Salmonella enterica; details: 2 mM Co2+, 37°C
Text: pyrophosphatase-coupled Pi release assay on STM1189

[5] = substrate: Nc1ccn([C@@H]2O[C@H](COP(=O)(O)OP(=O)(O)OP(=O)(O)O)[C@@H](O)[C@H]2O)c(=O)n1; type: biochemical, Homo sapiens; details: 2 mM Co2+, 37°C
Text: (§2) pyrophosphatase-coupled Pi release assay on ASMTL-Maf

[6] = substrate: CNc1ccn([C@H]2C[C@H](O)[C@@H](COP(=O)(O)OP(=O)(O)OP(=O)(O)O)O2)c(=O)n1; type: biochemical, Homo sapiens; details: 2 mM Co2+, 37°C
Text: as §2

[7] = substrate: Cc1cn([C@@H]2O[C@H](COP(=O)(O)OP(=O)(O)OP(=O)(O)O)[C@@H](O)[C@H]2O)c(=O)[nH]c1=O; type: biochemical, Homo sapiens; details: 2 mM Co2+, 37°C
Text: as §2

[8] = substrate: Nc1nc2c([nH]c(=O)n2[C@@H]2O[C@H](CO[P@@](=O)(O)O[P@@](=O)(O)OP(=O)(O)O)[C@@H](O)[C@H]2O)c(=O)[nH]1; type: biochemical, Homo sapiens; details: 2 mM Co2+, 37°C
Text: as §2

[9] = substrate: Cc1cn([C@@H]2O[C@H](COP(=O)(O)OP(=O)(O)OP(=O)(O)O)[C@@H](O)[C@H]2O)c(=O)nc1N; type: biochemical, Escherichia coli; details: 2 mM Co2+, 37°C
Text: (§3) pyrophosphatase-coupled Pi release assay on YhdE

[10] = substrate: O=c1[nH]cc([C@@H]2O[C@H](COP(=O)(O)OP(=O)(O)OP(=O)(O)O)[C@@H](O)[C@H]2O)c(=O)[nH]1; type: biochemical, Escherichia coli; details: 2 mM Co2+, 37°C
Text: as §3

[11] = substrate: Cc1cn([C@@H]2O[C@H](COP(=O)(O)OP(=O)(O)OP(=O)(O)O)[C@@H](O)[C@H]2O)c(=O)[nH]c1=O; type: biochemical, Escherichia coli; details: 2 mM Co2+, 37°C
Text: as §3

[12] = substrate: Cc1cn([C@H]2C[C@H](O)[C@@H](COP(=O)(O)OP(=O)(O)OP(=O)(O)O)O2)c(=O)[nH]c1=O; type: biochemical, Escherichia coli; details: 2 mM Co2+, 37°C
Text: as §3

[13] = substrate: Nc1ccn([C@@H]2O[C@H](COP(=O)(O)OP(=O)(O)OP(=O)(O)O)[C@@H](O)[C@H]2O)c(=O)n1; type: biochemical, Bacillus subtilis; details: 2 mM Co2+, 30°C
Text: (§4) pyrophosphatase-coupled Pi release assay on BSU28050

[14] = substrate: Cc1cn([C@@H]2O[C@H](COP(=O)(O)OP(=O)(O)OP(=O)(O)O)[C@@H](O)[C@H]2O)c(=O)nc1N; type: biochemical, Bacillus subtilis; details: 2 mM Co2+, 30°C
Text: as §4

[15] = substrate: O=c1[nH]cc([C@@H]2O[C@H](COP(=O)(O)OP(=O)(O)OP(=O)(O)O)[C@@H](O)[C@H]2O)c(=O)[nH]1; type: biochemical, Bacillus subtilis; details: 2 mM Co2+, 30°C
Text: as §4

[16] = substrate: Cc1cn([C@@H]2O[C@H](COP(=O)(O)OP(=O)(O)OP(=O)(O)O)[C@@H](O)[C@H]2O)c(=O)[nH]c1=O; type: biochemical, Bacillus subtilis; details: 2 mM Co2+, 30°C
Text: as §4

[17] = substrate: C[n+]1cn([C@@H]2O[C@H](COP(=O)(O)OP(=O)(O)OP(=O)(O)O)[C@@H](O)[C@H]2O)c2nc(N)[nH]c(=O)c21; type: biochemical, Escherichia coli; details: 2 mM Co2+, 37°C
Text: pyrophosphatase-coupled Pi release assay on YceF

B1: YOR111W (Saccharomyces cerevisiae S288C) (protein)
chain: MSGNSQLPPDVIGFICSKYDIILASTSPRRYEILHDIMGITDLKTMVSTFEENLDKMNYSTDPIGYVCDTSWHKAQNIIEILTDYEDENPNEIDKPKLIICADTIIIDKSGRIYEKPKTKEVQKKFLMKFCYEDDEPVNVVTAVTLIKWYGRENFELVPFRDETKVYFDNKIPLRILEEYVESGDGLEVGGGFKIQGQGAILIEKIEGDYYNVVGLPLNKTFKGLYAEANSI
notes: full-length recombinant, expressed in E. coli
B1 gave a Km [1] of 20 ± 0.4 µM, a kcat [1] of 5.3 ± 0.1 s⁻¹ and a kcat/Km [1] of 270000 M⁻¹ s⁻¹. For the same protein, the Km [2] was 13.0 ± 0.3 µM, the kcat [2] was 2.2 ± 0.1 s⁻¹ and the kcat/Km [2] was 170000 M⁻¹ s⁻¹. For the same protein, the Km [3] was 29.7 ± 1.4 µM, the kcat [3] was 2.6 ± 0.1 s⁻¹ and the kcat/Km [3] was 88000 M⁻¹ s⁻¹.

B2: STM1189 (Salmonella enterica subsp. enterica serovar Typhimurium str. LT2) (protein)
chain: MPRLILASTSPWRRALLEKLTIPFECAAPDVDETPMPGEAPRQLVLRLAQAKAQSLAARFPNHLIIGSDQICVLDGEITGKPLTEEKARQQLAKASGNIVTFYTGLALYNSASGHLQTEVEPFDVHFRHLSEAEIDDYVRKEHPLHCAGSFKSEGLGIALFERLEGRDPNTLIGLPLIALCQMLRREGFNPLQQ
notes: as for B1
B2 gave a Km [4] of 30.9 ± 1.2 µM, a kcat [4] of 1.5 ± 0.1 s⁻¹ and a kcat/Km [4] of 49000 M⁻¹ s⁻¹.

B3: ASMTL-Maf (Homo sapiens) (protein)
chain: MVLCPVIGKLLHKRVVLASASPRRQEILSNAGLRFEVVPSKFKEKLDKASFATPYGYAMETAKQKALEVANRLYQKDLRAPDVVIGADTIVTVGGLILEKPVDKQDAYRMLSRLSGREHSVFTGVAIVHCSSKDHQLDTRVSEFYEETKVKFSELSEELLWEYVHSGEPMDKAGGYGIQALGGMLVESVHGDFLNVVGFPLNHFCKQLVKLYYPPRPEDLRRSVKHDSIPAADTFEDLS
notes: N-terminal Maf domain, residues 1-239, recombinant from E. coli; dimer
B3 was tested, and the Km [5] was 17.4 ± 0.8 µM, the kcat [5] was 0.8 ± 0.02 s⁻¹ and the kcat/Km [5] was 46000 M⁻¹ s⁻¹. For the same protein, the Km [6] was 10.3 ± 0.7 µM, the kcat [6] was 0.3 ± 0.01 s⁻¹ and the kcat/Km [6] was 29000 M⁻¹ s⁻¹. It also gave a Km [7] of 16.1 ± 1.5 µM, a kcat [7] of 1.5 ± 0.1 s⁻¹ and a kcat/Km [7] of 93000 M⁻¹ s⁻¹. It also gave a Km [8] of 10.7 ± 0.6 µM, a kcat [8] of 0.2 ± 0.01 s⁻¹ and a kcat/Km [8] of 19000 M⁻¹ s⁻¹.

B4: YhdE (Escherichia coli K-12) (protein)
chain: MTSLYLASGSPRRQELLAQLGVTFERIVTGIEEQRQPQESAQQYVVRLAREKARAGVAQTAKDLPVLGADTIVILNGEVLEKPRDAEHAAQMLRKLSGQTHQVMTAVALADSQHILDCLVVTDVTFRTLTDEDIAGYVASDEPLDKAGAYGIQGLGGCFVRKINGSYHAVVGLPLVETYELLSNFNALREKRDKHDG
notes: full-length recombinant, expressed in E. coli; predicted monomer mass 24 kDa; mixture of dimers and tetramers
In the case of B4, the Km [9] is reported as 44.8 ± 2.2 µM, the kcat [9] is reported as 9.2 ± 0.2 s⁻¹ and the kcat/Km [9] is reported as 210000 M⁻¹ s⁻¹. It also gave a Km [10] of 47.2 ± 1.5 µM, a kcat [10] of 10.5 ± 0.2 s⁻¹ and a kcat/Km [10] of 220000 M⁻¹ s⁻¹. The Km [11] was 32.0 ± 2.2 µM, the kcat [11] was 18.2 ± 0.7 s⁻¹ and the kcat/Km [11] was 570000 M⁻¹ s⁻¹. It also gave a Km [12] of 53.0 ± 2.0 µM, a kcat [12] of 15.4 ± 0.3 s⁻¹ and a kcat/Km [12] of 290000 M⁻¹ s⁻¹.

B5: BSU28050 (Bacillus subtilis subsp. subtilis str. 168) (protein)
chain: MTKPLILASQSPRRKELLDLLQLPYSIIVSEVEEKLNRNFSPEENVQWLAKQKAKAVADLHPHAIVIGADTMVCLDGECLGKPQDQEEAASMLRRLSGRSHSVITAVSIQAENHSETFYDKTEVAFWSLSEEEIWTYIETKEPMDKAGAYGIQGRGALFVKKIDGDYYSVMGLPISKTMRALRHFDIRA
notes: full-length recombinant, expressed in E. coli; dimer
For B5, the Km [13] was 25.0 ± 0.8 µM, the kcat [13] was 7.1 ± 0.1 s⁻¹ and the kcat/Km [13] was 280000 M⁻¹ s⁻¹. It also gave a Km [14] of 7.8 ± 0.2 µM, a kcat [14] of 8.5 ± 0.1 s⁻¹ and a kcat/Km [14] of 1.1e+06 M⁻¹ s⁻¹. For the same protein, the Km [15] was 5.7 ± 0.3 µM, the kcat [15] was 7.2 ± 0.2 s⁻¹ and the kcat/Km [15] was 1.3e+06 M⁻¹ s⁻¹. For the same protein, the Km [16] was 4.7 ± 0.2 µM, the kcat [16] was 2.4 ± 0.1 s⁻¹ and the kcat/Km [16] was 510000 M⁻¹ s⁻¹.

B6: YceF (Escherichia coli K-12) (protein)
chain: MPKLILASTSPWRRALLEKLQISFECAAPEVDETPRSDESPRQLVLRLAQEKAQSLASRYPDHLIIGSDQVCVLDGEITGKPLTEENARLQLRKASGNIVTFYTGLALFNSANGHLQTEVEPFDVHFRHLSEAEIDNYVRKEHPLHCAGSFKSEGFGITLFERLEGRDPNTLVGLPLIALCQMLRREGKNPLMG
notes: full-length recombinant, expressed in E. coli; mixture of monomers and dimers
For B6, the Km [17] was 32.8 ± 3.1 µM, the kcat [17] was 1.2 ± 0.1 s⁻¹ and the kcat/Km [17] was 37000 M⁻¹ s⁻¹.
